Data: patent US20110195900A1, “PEPTIDIC PTH RECEPTOR AGONISTS” (FERRING B.V., priority 2008, published 2011)
Starred links: 1 amine or outer side, 2 acyl side, 3 side chain; linkers in the order of their positions; H or OH if unused. Non-standard residues stand in square brackets, D forms with d. No end group written: not given here. hSer(OMe) = COCC[C@H](N[*:1])C(=O)[*:2]; 1Nal = N[C@@H](Cc1cccc2ccccc12)C(=O)O; β3hI = CC[C@H](C)[C@H](N)CC(=O)O; β3hR = N=C(N)NCCC[C@H](N)CC(=O)O; β3hF = N[C@H](CC(=O)O)Cc1ccccc1; β3hK = NCCCC[C@H](N)CC(=O)O; Nle = CCCC[C@H](N)C(=O)O; Aib = CC(C)(N)C(=O)O

Experiments:
[1] = target: human parathyroid hormone receptor 2 (human, UniProt P49190); assay: cell-based or functional assay
[2] = target: human parathyroid hormone receptor 1 (human, UniProt Q03431); assay: cell-based or functional assay

Binder	hPTHR-2 EC50 (nM), luciferase reporter gene assay [1] [nM]	hPTHR-1 EC50 (nM), CRE-luciferase reporter gene assay [2] [nM]
[Aib]VSEIQL[Nle]HNLGKHLNS[β3hF]ERVE[1Nal]LRKLLQDVHNF-NH2 [[Aib^1, Nle^8, β-hPhe^18, 1-Nal^23, Leu^27 hPTH (1-34)-NH2]	5	0.06
[Aib]VSEIQL[Nle]HNLGKHLNS[β3hR]ERVE[1Nal]LRKLLQDVHNF-NH2 [[Aib^1, Nle^8, β-hArg^18, 1-Nal^23, Leu^27] hPTH (1-34)-NH2]	16	0.05
SVSEIQL[Nle]HSLGKHLKS[β3hI]ERVE[1Nal]LRKLLQRVHEE-NH2 [[Nle^8, Ser^10, Lys^16, β-hIle^18, 1-Nal^23, Leu^27, Arg^30, Glu^33, Glu^34] hPTH (1-34)-NH2]	6	0.04
[Aib]VSEIQL[Nle]HSLGKHLKS[β3hI]ERVE[1Nal]LRKLLQRV-NH2 [[Aib^1, Nle^8, Ser^10, Lys^16, β-hIle^18, 1-Nal^23, Leu^27, Arg^30] hPTH (1-31)-NH2]	6	0.09
SVSEIQL[Nle]HNLGKHLNS[β3hF]ERVE[1Nal]LRKLLQDVHNF-NH2 [[Nle^8, β-hPhe^18, 1-Nal^23, Leu^27] hPTH (1-34)-NH2]	10	0.11
[Aib]VSEIQL[Nle]HNLGKHLNS[hSer(OMe)][β3hK]RVE[1Nal]LRKLLQDVHNF-NH2 (N-terminus assumed; SMILES CCCC[C@H](NC(=O)[C@H](CC(C)C)NC(=O)[C@H](CCC(N)=O)NC(=O)[C@@H](NC(=O)[C@H](CCC(=O)O)NC(=O)[C@H](CO)NC(=O)[C@@H](NC(=O)C(C)(C)N)C(C)C)[C@@H](C)CC)C(=O)N[C@@H](Cc1c[nH]cn1)C(=O)N[C@@H](CC(N)=O)C(=O)N[C@@H](CC(C)C)C(=O)NCC(=O)N[C@@H](CCCCN)C(=O)N[C@@H](Cc1c[nH]cn1)C(=O)N[C@@H](CC(C)C)C(=O)N[C@@H](CC(N)=O)C(=O)N[C@@H](CO)C(=O)N[C@@H](CCOC)C(=O)N[C@@H](CCCCN)CC(=O)N[C@@H](CCCNC(=N)N)C(=O)N[C@H](C(=O)N[C@@H](CCC(=O)O)C(=O)N[C@@H](Cc1cccc2ccccc12)C(=O)N[C@@H](CC(C)C)C(=O)N[C@@H](CCCNC(=N)N)C(=O)N[C@@H](CCCCN)C(=O)N[C@@H](CC(C)C)C(=O)N[C@@H](CC(C)C)C(=O)N[C@@H](CCC(N)=O)C(=O)N[C@@H](CC(=O)O)C(=O)N[C@H](C(=O)N[C@@H](Cc1c[nH]cn1)C(=O)N[C@@H](CC(N)=O)C(=O)N[C@@H](Cc1ccccc1)C(N)=O)C(C)C)C(C)C) [[Aib^1, Nle^8, hSer(OMe)^18, β-hLys^19, 1-Nal^23, Leu^27] hPTH (1-$$4)-NH2]	3	0.05
[Aib]VSEIQL[Nle]HNLGKHLN[β3hF][hSer(OMe)]ERVE[1Nal]LRKLLQDVHNF-NH2 [[Aib^1, Nle^8, β-hPhe^17, hSer(OMe)^18, 1-Nal^23, Leu^27] hPTH-(1-34)-NH2]	117	0.1
SVSEIQL[Nle]HSLGKHLKS[β3hI]ERVE[1Nal]LRKLLQRV-NH2 [[Nle^8, Ser^10, Lys^16, β-hIle^18, 1-Nal^23, Leu^27, Arg^30] hPTH (1-31)-NH2]	7	0.08
